US20080306243A1 (NEC, published 2008)

Molecular target: T1, HLA-A2402 molecule, which is a product of the HLA-A*2402 gene (human)
T1 construct: MHC class I molecule on C1R-A24 cells, emptied by acid and reassociated with added β2m and the test peptide; also called HLA-A24 molecule; human HLA-A2402 molecule
Experiment: flow cytometry; reassociation of peptide, added β2m and HLA-A2402 on acid-stripped C1R-A24 cells, stained with mAb 17A12
Experimental: After neutralization, purified β2m was added to C1R-A24 cells, the obtained product was added to serial dilutions of a peptide, and incubated on ice for 4 hours.
Subsequently, the MHC-pep count per C1R-A24 cell (proportional to the strength of fluorescence of the above-mentioned fluorescent antibody) was quantitatively measured using an FACScan fluorescence-activated cell sorter (Becton Dickinson Biosciences). A binding dissociation constant Kd value between the HLA-A24 molecule and the peptide was calculated from the average strength of fluorescence per cell by a published method (Udaka et al., Immunogenetics, 51, 816-828, 2000).

Binder	-log Kd
ILLGRHSLF (Synthetic 9-mer peptide of PSA (GenBank M26663)) [SEQ ID NO 3]	7.47 -log Kd
GVLQGITSW (Synthetic 9-mer peptide of PSA (GenBank M26663)) [SEQ ID NO 8]	5.38 -log Kd
QVFQVSHSF (Synthetic 9-mer peptide of PSA (GenBank M26663)) [SEQ ID NO 5]	7.32 -log Kd
VHPQKVTKF (Synthetic 9-mer peptide of PSA (GenBank M26663)) [SEQ ID NO 7]	6.65 -log Kd
VLVHPQWVL (Synthetic 9-mer peptide of PSA (GenBank M26663)) [SEQ ID NO 9]	6.34 -log Kd
ILSRIVGGW (Synthetic 9-mer peptide of PSA (GenBank M26663)) [SEQ ID NO 6]	7.21 -log Kd
